Reference: article PMC6497169 (Nature microbiology, 2017)

B1: SetA (natural protein)
chain: MYKIYSYLGWRIDMKTENLPQAGQEAQIDKKIHFIWVGHIMPQKNIQVVSEWAEKNPGYETIIWVDKKIAPAKELDLFILDMKSKGITVKDINEEGVCRDSIRHELDQESPNYGMVSDMLRLNILAAEGGIYLDSDILCSAPFPDEIYAPFGFLLSPWSQGANNTLCNDIILCSKGNQIIQQLADAIEQSYIARDSFEFTHEYASMKETKGERIAKTLGVTGPGFLFHQLKKMGILNDKSEMEAIHWELQDQRYLIDGSVKEPDYFYVPQNNTNDASWVPSIKRPGIENMSFQERLENAVQLIAFDIQKTGLFNLDHYANELKVKQNSWCIAAETSPELKPDSYLLIRPRDKTGEWTLYYVDEDKKLNPVTLPVIKGAIKLSEVSDPLRKFHTLLSQVSDPVNPTAHELKQIGRALIELKPRQDEWHCKNKWSGAEEIAQELWQRITSNETLRAQIKQCFTQFESLKPRVAELGLTRASGAGTEVEAHESTVKEQEIISQNTVGEEGTKEKNSVQLASENSSDEKIKTAHDLIDEIIQDVIQLDGKLGLLGGNTRQLEDGRVINIPNGAAMIFDDYKKYKQGELTAESALESMIKIAKLSNQLNRHTFFNQRQPETGQFYKKVAAIDLQTTIAAEYDNNHGLRI
B2: DotL(590–783)–DotN–IcmSW–LvgA with the (His)10-MBP tag on DotL(590–783) (complex)
chain 1: VEPPPDDYLMKLQKQLASFQSILESGDLSINKAVENEEITLISKALKESTIVEPIERGVAALIAFHGQNEPEPVEDIVEEEVEGALTIFSKLRIDPNAPPILVADKEVFSEPLLPINETRNQMITIERLAGAKDKYAGTVANELIKDFQIATSYPPEERDVIDVQELTGIIRDLSAKISAEREKANKKAAEELT
chain 2: MADNQQRCELKLIASPGSWRLYSARKIDERFKSYEQKIFQRDRYTCQFCGFQARLYQDIVNLDGDYTNNRLSNLVTACCFCAQCFFVESVGVGGYGGGTLIYLPELTQAELNSLCHVLFCAITNDTGYKSSAQNIYRSFKFRSQIVEEKFGEGTSDPAIFGQLMIDSGVNSEEIREKLFKNIRLLPSRAKFRKQIEKWAASALEEIAD
chain 3: MERDISKCMAKIAASMNAKFYLNDRFVSFDEVFSETGLLPAIAKRADQLCSLCLGYGLGATYDESEGALLGIRVVFDEVTPNVLRLLCMTDVMNELIQGGPSRDYTPLDELMYD
chain 4: MPDLSHEASAKYWFEYLDPMIYRVITFMESVENWTLDGNPELEEAMKQLGQELDDIEKIDLGLLAEEDKFIRIVGNIKSGRGLRLLQAIDTVHPGSASRVLIHAEETSLSSSDPAGFFLKRNIVFERLRLLSRVFCQYRLKLVLRALEGDE
chain 5: MADGDIEIKAGFVDTDLDDRKLTMIDDLNNPLAIVERVYLIWWHWADFHLHVISPHIDTITPAIVIEPELIPGSNDHEFVYSIHDSGSKLSTSKSQDMFSAGMSMCKLFYTIEKMVYILVERLKSGGVSMEAEVQIAFAGHEIAQRKAFESIINLPYNVVVTNFDPGIWGEKYLQNVKRLADKGYGYPPESPRKIYMHPVSSGTTARK

Key:
[1] = target: B2; assay: BLI
VpdB = VpdB (L. pneumophila, UniProt Q5ZW60 1-598); assay: BLI

Binder	Kd [1]	koff [1]	kon [1]	Kd (VpdB)	koff (VpdB)	kon (VpdB)
B1	1600 nM	0.0203 s⁻¹	13100 M⁻¹ s⁻¹			
B2				~332 nM	0.0039 s⁻¹	11800 M⁻¹ s⁻¹
